# Measured values: PMC3092057
# B1: set I TIEG1 site (dsDNA)
# DNA 1: TGCAGTGAAAAGGGGGTGTGTCAGGATGC
# DNA 2: TGCATCCTGACACACCCCCTTTTCACTGC
# Key:
# Assay in all cases: EMSA
# [1] = biological target: TIEG1(DBD) T445E (Homo sapiens, UniProt Q13118 363-480, T445E)
# [2] = biological target: TIEG1(DBD) S384A/T445A (Homo sapiens, UniProt Q13118 363-480, S384A;T445A)
# [3] = biological target: TIEG1(DBD) S384A (Homo sapiens, UniProt Q13118 363-480, S384A)
# [4] = biological target: TIEG1(DBD) T445A (Homo sapiens, UniProt Q13118 363-480, T445A)
# Sequence of TIEG1(DBD) T445A (Q13118 363-480 T445A): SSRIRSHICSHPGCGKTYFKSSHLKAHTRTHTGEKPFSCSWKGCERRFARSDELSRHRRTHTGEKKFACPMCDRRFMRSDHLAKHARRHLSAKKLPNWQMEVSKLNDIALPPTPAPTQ
# [5] = biological target: TIEG1(DBD) (Homo sapiens, UniProt Q13118 363-480)
# Sequence of TIEG1(DBD) (Q13118 363-480): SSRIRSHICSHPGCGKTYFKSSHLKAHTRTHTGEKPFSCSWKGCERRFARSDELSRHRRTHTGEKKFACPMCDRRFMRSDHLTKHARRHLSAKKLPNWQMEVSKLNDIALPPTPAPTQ
# [6] = biological target: TIEG1(DBD) S384E (Homo sapiens, UniProt Q13118 363-480, S384E)
# Sequence of TIEG1(DBD) S384E (Q13118 363-480 S384E): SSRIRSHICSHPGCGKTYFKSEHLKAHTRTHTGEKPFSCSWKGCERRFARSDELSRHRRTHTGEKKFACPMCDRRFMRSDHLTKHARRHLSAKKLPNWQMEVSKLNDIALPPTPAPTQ
# [7] = biological target: TIEG1(DBD) S384E/T445E (Homo sapiens, UniProt Q13118 363-480, S384E;T445E)
# Sequence of TIEG1(DBD) S384E/T445E (Q13118 363-480 S384E/T445E): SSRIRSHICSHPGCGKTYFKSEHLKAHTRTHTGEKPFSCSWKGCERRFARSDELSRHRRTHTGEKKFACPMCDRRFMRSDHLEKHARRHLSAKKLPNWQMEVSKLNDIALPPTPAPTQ
# Sequence of TIEG1(DBD) S384A (Q13118 363-480 S384A): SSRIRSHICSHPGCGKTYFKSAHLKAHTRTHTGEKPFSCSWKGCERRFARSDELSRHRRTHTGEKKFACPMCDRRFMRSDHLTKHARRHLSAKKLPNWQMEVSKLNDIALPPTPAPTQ
# Sequence of TIEG1(DBD) S384A/T445A (Q13118 363-480 S384A/T445A): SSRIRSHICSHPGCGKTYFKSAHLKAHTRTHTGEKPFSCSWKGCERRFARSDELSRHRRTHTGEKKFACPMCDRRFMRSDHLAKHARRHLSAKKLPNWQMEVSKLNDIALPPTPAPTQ
# Sequence of TIEG1(DBD) T445E (Q13118 363-480 T445E): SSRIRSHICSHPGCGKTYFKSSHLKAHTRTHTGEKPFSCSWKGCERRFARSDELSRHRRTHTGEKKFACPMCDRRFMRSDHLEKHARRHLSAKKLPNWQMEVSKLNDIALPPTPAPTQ
binder,measurement,setting,value
B1,binding result,[1],binds
same,binding result,[2],binds
same,binding result,[3],binds
same,binding result,[4],binds
same,binding result,[5],binds
same,binding result,[6],no binding
same,binding result,[7],no binding
